According to patent publication US20220112296A1:

Target: biotinylated CD3 epsilon epitope peptide
Assay: SPR Biacore, method of Ref. Ex. 11

B1: CE115HA000 (antibody, V domains shown)
VH: QVQLVESGGGVVQPGRSLRLSCAASGFTFSNAWMHWVRQAPGKGLEWVAQIKAKSNNYATYYAESVKGRFTISRDDSKNSLYLQMNSLKTEDTAVYYCRYVHYGAYYGVDAWGQGTTVTVSS
VL: DIVMTQSPLSLPVTPGEPASISCRSSQSLVHSNRNTYLHWYQQKPGQAPRLLIYKVSNRFSGVPDRFSGSGSGTDFTLKISRVEAEDVGVYYCGQGTQVPYTFGQGTKLEIK
Kd: 110 nM
